Experimental data: article PMC3897220, “A comparative study of Whi5 and retinoblastoma proteins: from sequence and structure analysis to intracellular networks” (Frontiers in Physiology, 2013)

T1: Whi5^Sc motif 3 peptide (residues 245-267), biotinylated (S. cerevisiae, UniProt Q12416 245-267, biotin (position not given))
T1 construct: Whi5 of Saccharomyces cerevisiae, motif 3, residues 245-267 (Whi5^Sc numbering); Held on a streptavidin chip by its biotin; source: synthetic peptide (Primm, Milano, Italy)
T1 peptide (looked up): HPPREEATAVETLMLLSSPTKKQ

B1: Whi5^Sc motif 1 peptide (residues 136-162) (peptide, UniProt Q12416 136-162, looked up)
peptide: MPLLPPTTPKSRRSEVFLSPSPRLRSP
notes: Whi5 of Saccharomyces cerevisiae, motif 1, residues 136-162 (Whi5^Sc numbering); source: synthetic peptide (Primm, Milano, Italy)

Columns and labels:
[1] = target: Whi5 (Whi5Sc) motif 3, 245-267 (UniProt Q12416); assay: SPR, biotinylated motif 3 on streptavidin chip; settings: reference: unphosphorylated motif 1 peptide; sites T143,S154,S156,S161
[2] = target: T1, Whi5^Sc motif 3 peptide (residues …); assay: SPR; BIAcore X; biotinylated motif 3 immobilised on streptavidin Sensor Chip SA (~1000 resonance units), reference cell saturated with biotin; analytes motif 1 and phospho-motif 1 at 20 to 340 uM; HBS-EP buffer, flow 5 ul/min; settings: both partners purified

Row | Molecule | binding against the reference [1] | binding result [2]
1 | Whi5 (Whi5Sc) motif 1, 136-162 (from UniProt Q12416) phospho-motif 1 peptide (pT143, pS154, pS156, pS161) | weaker | 
2 | B1 |  | binds
